The supplement of paper PMC9732359
± gives the uncertainty stated by the source.

Test: protein stability index of a GFP-peptide fusion (yeast GPS) (PSI 1-4); higher = more stable; sorted into four equal gates, so the index is relative within each strain
Summary of the method: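 Plasmids isolated from each sorting gate were PCR-amplified and Illumina-sequenced, and barcodes assigned the reads to strains. The gates, four of equal size, were set by GFP/Cherry fluorescence ratio on mid-log cultures in leucine-free medium. These cultures were yeast carrying a pooled library of tiled 17-residue yeast protein peptides fused downstream of GFP on a plasmid that also expresses Cherry. The protein stability index is the sum of every gate's read frequency times its gate number.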

Sequence | protein stability index (doa10∆) | protein stability index (pdr5∆) | protein stability index (san1∆) | protein stability index (ubr1∆)
SSVFLPSRKDCMEVASA [BRR2] | 2.73 ± 0.063 | 3.4 ± 0.077 | 3.33 ± 0.066 | 3.19 ± 0.059
ACHVEVPYVLMGQIATF [COB] | 2.08 ± 0.092 | 1.98 ± 0.088 | 1.87 ± 0.12 | 1.94 ± 0.066
QFSYLSSTLGIDLEDIK [PCI8] | 2.36 ± 0.064 | 2.23 ± 0.076 | 1.71 ± 0.12 | 2.01 ± 0.07
IGDDGYDLLISTLTTIS [SRB5] | 2.18 ± 0.054 | 2.1 ± 0.058 | 1.52 ± 0.085 | 2.2 ± 0.061
EEAPAPTPAASAPAPAA [FAS2] | 2.8 ± 0.095 | 2.95 ± 0.076 | 2.85 ± 0.091 | 3.02 ± 0.1
SYANHLEESDVEDTLHV [YOR098C/NUP1] | 2.98 ± 0.082 | 2.4 ± 0.065 | 2.13 ± 0.081 | 1.97 ± 0.051
ISLRNNMFELAQQLVGV [SMC4] | 1.24 ± 0.089 | 1.74 ± 0.079 | 1.78 ± 0.093 | 1.87 ± 0.084
SNHNNLNLNNSELQPQN [SNF2] | 3.02 ± 0.044 | 2.7 ± 0.062 | 2.97 ± 0.051 | 2.81 ± 0.056
IERIGHLLSINYGEKEE [PCI8] | 1.32 ± 0.06 | 1.33 ± 0.055 | 1.2 ± 0.092 | 1.18 ± 0.049
DACPLDNQPWQLARCGR [HRT1] | 2.76 ± 0.068 | 2.56 ± 0.067 | 2.03 ± 0.077 | 2.61 ± 0.059
RMPIMLRSNKCILYDAD [RET1] | 1.23 ± 0.15 | 1.41 ± 0.11 | 1.25 ± 0.25 | 1.77 ± 0.095
VMMDVDSSGVNDLHHSE [RPN3] | 3.34 ± 0.082 | 3.31 ± 0.076 | 3.35 ± 0.066 | 3.19 ± 0.054
CNGSALVEARSLGHQTS [MTR3] | 3.52 ± 0.17 | – | 3.1 ± 0.22 | –
SRKRGGENVFLKRISDG [SIR3] | 3.35 ± 0.086 | 3.29 ± 0.072 | 3.07 ± 0.052 | 3.24 ± 0.037
TSAHLKLKEMQKVLNAH [SMC4] | 2.41 ± 0.13 | 2.76 ± 0.17 | 2.63 ± 0.096 | 1.97 ± 0.085
KRHSYAQSSHIRAIRKV [RPS1A] | 2.399 ± 0.019 | 2.336 ± 0.017 | 2.423 ± 0.022 | 2.446 ± 0.015
ALSLLYHLLNYDPIKRI [SSN3] | 2.56 ± 0.073 | 2.05 ± 0.051 | 2.39 ± 0.072 | 2.19 ± 0.039
GISEVQARKSKSVSFYA [RPT5] | 3.4 ± 0.064 | 3.39 ± 0.093 | 3.37 ± 0.056 | 3.31 ± 0.063
LFQDGSASLHTRSLKYG [RRP4] | 2.48 ± 0.085 | 2.76 ± 0.088 | 2.59 ± 0.1 | 2.88 ± 0.059
SQVVWIRRLRVLRRLLA [RPL19A] | 1.22 ± 0.054 | 1.46 ± 0.049 | 1.44 ± 0.12 | 1.29 ± 0.053
GNMGITTEMLDKLMVTS [MED6] | 3.36 ± 0.1 | 3.55 ± 0.1 | 3.26 ± 0.068 | 3.07 ± 0.11
SPIPFPPLTYKNDTKIL [PRP8] | 2.91 ± 0.057 | 2.56 ± 0.045 | 2.73 ± 0.059 | 2.24 ± 0.029
TAMKKVEDGNILVFQVS [RPL25] | 2.53 ± 0.049 | 2.48 ± 0.056 | 2.48 ± 0.052 | 2.8 ± 0.044
LGVASFHGTSTKANDKN [FAS2] | 3.09 ± 0.079 | 2.95 ± 0.092 | 3.11 ± 0.075 | 3.02 ± 0.069
LRQLASYYSREQDALFI [RPN1] | 1.7 ± 0.045 | 1.8 ± 0.046 | 1.63 ± 0.08 | 1.81 ± 0.042
AVRLILPGELAKHAVSE [HTB1] | 3.23 ± 0.095 | 2.98 ± 0.064 | 1.52 ± 0.17 | 3.28 ± 0.064
RFRKAQCPIIERLTNSL [RPS5] | 2.32 ± 0.2 | 2.82 ± 0.26 | – | 2.07 ± 0.21

Sequence | protein stability index (doa10∆) | protein stability index (pdr5∆) | protein stability index (san1∆) | protein stability index (ubr1∆)
FKSLIDEDLLDTQTFSV [YGL172W/NUP49] | 3.17 ± 0.17 | 3.05 ± 0.25 | – | 3.76 ± 0.26
QGNYPTTSYIKEQENIT [DPB4] | 3 ± 0.06 | 3.1 ± 0.06 | 3.02 ± 0.041 | 3.18 ± 0.075
GQSEASLLNLLNISPFT [RPP0] | 2.59 ± 0.066 | 2.1 ± 0.057 | 2.29 ± 0.085 | 2.66 ± 0.058
LHRLTPKNVKGEEDADE [RPN1] | 3.65 ± 0.26 | – | – | –
VQIKDVNDRYQIPTPNN [CSI1] | 1.72 ± 0.05 | 2.25 ± 0.064 | 1.75 ± 0.12 | 1.73 ± 0.049
DTAVKTAETGYIQRRLV [RPO21] | 1.75 ± 0.053 | 2.5 ± 0.069 | 1.98 ± 0.12 | 2.13 ± 0.058
VDSLDPFSEGVTFSVMP [SMC4] | 2.92 ± 0.086 | 2.39 ± 0.065 | 2.2 ± 0.13 | 3.1 ± 0.072
DADEKSSNLYETIIEAD [YJR042W/NUP85] | 2.82 ± 0.067 | 2.95 ± 0.061 | 2.88 ± 0.057 | 3.13 ± 0.082
QVRKDLGNVIVPNILSL [NUT1] | 2.23 ± 0.1 | 2.55 ± 0.088 | 2.46 ± 0.093 | 2.62 ± 0.07
SYTAFSRLTLLLRALKT [PRP8] | 1.27 ± 0.042 | 1.19 ± 0.037 | 1.24 ± 0.082 | 1.25 ± 0.035
HVFQYANRPRLVGRKPA [RPC37] | 2.86 ± 0.23 | – | 2.28 ± 0.28 | 2.69 ± 0.082
VVFAVEKLITSKLLVPQ [PRE10] | 2.03 ± 0.14 | 2.81 ± 0.18 | 2.33 ± 0.13 | 2.66 ± 0.05
GRSDSNTEEKAELQSNL [YGL100W/SEH1] | 1.61 ± 0.037 | 1.64 ± 0.051 | 1.4 ± 0.14 | 1.52 ± 0.039
SLLNLLNISPFTFGLTV [RPP0] | 1.79 ± 0.049 | 1.91 ± 0.049 | 1.56 ± 0.078 | 1.84 ± 0.044
RASLVPGTVLILLAGRF [RPL6A] | 1.67 ± 0.054 | 1.93 ± 0.084 | 1.78 ± 0.1 | 1.75 ± 0.082
DKDSTKEVASLPNKSTI [FAS2] | 3.13 ± 0.089 | 3.1 ± 0.12 | 3.02 ± 0.072 | 3.21 ± 0.14
SHDKKTKCSTVVKASEL [SRP14] | 3.02 ± 0.18 | 3.46 ± 0.22 | 3.05 ± 0.17 | 3.33 ± 0.11
LYQSLTPQQLQMIQQRH [SNF5] | 1.77 ± 0.037 | 2.24 ± 0.04 | 1.69 ± 0.053 | 2.08 ± 0.033
YLIDHIKVDGAVGNLGN [RPL22B] | 2.41 ± 0.23 | 2.49 ± 0.14 | 2.53 ± 0.066 | 2.61 ± 0.24
EGGEAEFIFGTYNMIDA [ARP7] | 2.79 ± 0.059 | 2.66 ± 0.055 | 2.52 ± 0.054 | 2.83 ± 0.045
IPIGHVHVIHFQHADNS [AAR2] | 2.86 ± 0.11 | 2.71 ± 0.073 | 2.9 ± 0.074 | 2.65 ± 0.05
IEKARVEAQSHRLTLED [PRE6] | – | – | – | 3.26 ± 0.15
MLKYRRLFIGDQNNKKM [SNF2] | 2.62 ± 0.097 | 2.82 ± 0.073 | 2.47 ± 0.094 | 2.63 ± 0.057
DESTIKRIKPNTEITQK [ECM29] | 2.88 ± 0.051 | 2.96 ± 0.053 | 2.95 ± 0.046 | 2.91 ± 0.044
DEFYINVDKNLNEIKEH [RPN14] | 2.51 ± 0.072 | 2.5 ± 0.054 | 2.73 ± 0.062 | 2.92 ± 0.067
SFFHQSNMQKSLLPYYH [RPN3] | 1.66 ± 0.037 | 1.67 ± 0.041 | 1.63 ± 0.07 | 1.9 ± 0.03
QRMHAIHEIDERLAKVN [NNF1] | 1.44 ± 0.093 | 2.59 ± 0.14 | 2.42 ± 0.085 | 2.14 ± 0.061
